Results from patent US20230330253A1 (LANOVA MEDICINES, published 2023).

Each binder was assayed against human claudin 18.2 (CLDN18.2) (human) (assay: cell-based or functional assay).

EC50, ADCC Reporter Bioassay (luciferase, Jurkat FcγRIIIa V158/NFAT effector cells)	Binder
46.3 pM	72C1B6A3 chimeric antibody (antibody, V domains shown) VH: QVQLQQSGGELVKPGASVKMSCKAFGYTFTTYPIEWMKQNHGKSLEWIGNFHPYNDDTKYNEKFKGKAKLTVEKSSSTVYLEVSRLTSDDSAVYYCARRAYGYPYAMDYWGQGTSVTVSS VL: DIVMTQSPSSLTVTAGEKVTMSCKSSQSLLNSGNQKNYLTWYQQRPGQPPKLLIYRASSRESGVPVRFTGSGSGTDFTLTISSVQAEDLAVYYCQNDYIYPYTFGGGTKLEMN
5.81 pM	120B7B2 chimeric antibody (antibody, V domains shown) VH: EVQLQQSGPELVKPGASVKMSCKASGYTFTGYIIQWMKQKPGLGLEWIGFINPYNDGTKYNEQFKGKATLTSDKSSNAAYMELSSLTSEDSAVYYCARAYFGNSFAYWGQGTLVTVSA VL: DIVMTQSPSSLTVTAGEKVTMSCKSSQSLLNSGNQKNYLTWYQQRPGQPPKLLMYWASTRESGVPDRFTGSGSGTDFTLTISSGQAEDLAIYFCQNGYYFPFTFGSGTKLETK
22.2 pM	4F11E2 chimeric antibody (antibody, V domains shown) VH: DVQLVESGGGLVQPGGSRKLSCAASGFTFSTFGMHWVRQAPEKGLEWVAYITSGNSPIYFTDTVKGRFTISRDNPKNTLFLQMTSLGSEDTAVYYCARSSYYGNSMDYWGQGTSVTVSS VL: DIVMTQSPSSLTVTAGEKVTLTCRSSQSLLNSGNRKNYLTWYQQIPGQPPKLLIYWASTRESGVPDRFTGSGSGTYFTLTISSVQAEDLAVYYCQNAYSYPFTFGSGTKLEKK

Target: human claudin 18.2 (CLDN18.2) (human)
Assay: cell-based or functional assay
Remark: another data set of the same source

Fluorescence, pHAb internalization on MKN45-CLDN18.2 cells, 20 nM antibody, normalized by DAR	Fluorescence, pHAb internalization on MKN45-CLDN18.2 cells, 100 nM antibody, normalized by DAR	Binder
14800	43100	105F7G12 chimeric antibody (antibody, V domains shown) VH: QVQLKQSGPGLVQPSQSLSITCTVSDFSLTKYGVHWFRQSPGKGLEWLGVIWTGGNTDYNPALIPRLSFRKDNSKSQVFFKMNSLQSSDTAVYYCARNGYYGNAMDYWGQGTSVTVSS VL: DIVMTQSPSSLTVTAGERVTMSCKSSQSLLNSGNQKNYLAWYQQKPGQPPKLLLYWASTRESGVPDRFKGSGSGTDFTLTISSVQAEDLAVYYCQNAYFYPCTFGGGTKLEMK
23500	35800	103H2B4 chimeric antibody (antibody, V domains shown) VH: QVQLQQPGAEPVKPGASVKLSCKASGYSFTNFLTHWVRQRPGQGLEWIGEINPTNGRTYYNEKFKRKATLTVDKSSTTVYMQLSNLTPEDSAVFYCARIYYGNSMDYWGQGTLVTVSA VL: DILMTQSPSSLTVTAGEKVTMSCKSSQSLLNSGNQKNYLTWYQQKPGQSPKLLIYWASTRESGVPDRFTGSGSGTDFTLTISSVQAEDLAVYYCQNNYFYPLTFGVGTKLELK
19300	40100	110C12B6 chimeric antibody (antibody, V domains shown) VH: EVQLQQSGPELVKPGASVKMSCKSSGYTFTGFLMHWVKQKPGQGLEWIGYINPYNDGTKYSEKFKGKATLTSDKSSSTAYMELSSLTSDDSAVYYCGRLDYGNAMDYWGQGTSVTVSS VL: DIVMTQSPSSLTVTAGEKVTMRCRSTQSLFNSGNQRNYLTWYQQKPGQPPKLLIYWASTRESGVPDRFTGSGSGTDFTLTISSVQAEDLAVYYCQNAYYYPLTFGVGTKLERK
17100	33500	100F4G12 chimeric antibody (antibody, V domains shown) VH: EVQLQQSGPELVKPGASVKMSCKASGYTFTGFLMHWVKQKPGQGLEWIGYINPYNDGTKYSERFKGKATLTSDKSSSTAYMELSSLTSDDSAVYYCARLDYGNAMDYWGQGTSVTVSS VL: DIVMTQSPSSLTVTAGEKVTMRCKSTQSLLNSGNQRNYLTWYQQKPGQSPKLLIYWASTRESGVPERFTGSGSGTDFTLTISSVQAEDLAVYYCQNAYYYPLTFGPGTKLERK
15900	37400	111B12D11 chimeric antibody (antibody, V domains shown) VH: QVQLKESGPGLVAPSQSLSITCTVSGFSLTSYGVHWVRQPPGKGLEWLGVIWAGGSTNYDSTLMSRLSISKDRSKSQVFLKMTSLQTDDTAMYYCARSLYGNSFDHWGQGTTLTVSS VL: DIVMTQSPSSLTVTAGEKVTMRCRSSQSLFNSGNQRNYLTWYQQKPGQPPKLLIYWASTRESGVPDRFTGSGSGTDFTLTISSVQAEDLAVYYCQNNYIYPLAFGAGTKLELK
18700	35100	84E9E12 chimeric antibody (antibody, V domains shown) VH: DVQLQESGPGLVKPSQSLSLSCSVTGYSITSGYFWTWFRQFPGNKLEWMGYISYDGSNNYNPSLKNRISITRDTSKNQFFLKLNSVTTEDTATYYCASFRFFAYWGQGTLVTVSA VL: DIVMTQSPSSLTVTTGEKVTMSCKSSQSVFNSGNQKNYLTWYQQKPGQPPKLLVYWASTRESGVPARFTGSGSGTVFTLTISSVQAEDLAVYYCQNDYYFPLTFGAGTRLELK
13200	29900	113E12F7 chimeric antibody (antibody, V domains shown) VH: QVQLKESGPGLVAPSQSLSITCTVTGFSLSSYGVHWVRQPPGKGLEWLGVIWAGGSTNYDSALMSRLSISKDRSKSQVFLKMTSLQTDDTAMYYCARSLYGNSFDHWGQGTTLTVSS VL: DIVMTQSPSSLTVTTGEKVTMSCKSSQSLFNSGNQKNYLTWYQQKPGQPPKLLIYWASTRESGVPDRFTGSGSGTYFTLTISSVQAEDLAVYYCQNNYIYPLAFGTGTKLELK
12300	28000	111E7E2 chimeric antibody (antibody, V domains shown) VH: QVQLKESGPGLVAPSQSLSITCTVSGFSLTSYGAHWVRQPPGKGLEWLGVIWAGGSTNYDSALMSRLSISKDRSKSQVFLKMTSLQTDDTAMYYCARSLYGNSFDHWGQGTTLTVSS VL: DIVMTQSPSSLTVTAGEKVTMSCKSSQSLFNSGNQKNYLTWYQQKPGQPPKLLIYWASTRESGVPDRFTGSGSGTDFTLTISSVQAEDLAVYYCQNNYIYPLAFGAGTKLELK
19700	29100	85H12E8 chimeric antibody (antibody, V domains shown) VH: QVQLKESGPGLVAPSQSLSITCTVSGFSLSNYGVSWVRQPPGKGLEWLGVIWAGGNTNYNSALMSRLRISKDNSKSQVFLKMNSLQTDDTARYYCARHGYGKGNAMDNWGQGTSVTVSS VL: DIVMTQSPSSLTVTAGEKVTMNCKSSQSLLNSGNQRNYLSWYQQEPGQPPKLLIYWASTRESGVPDRFTGSGSGTDFTLTISNIQAEDLALYFCQNAYFYPFTFGSGTKLEIK
31200	49100	103F4D4 chimeric antibody (antibody, V domains shown) VH: QVQLQQSGAELARPGASVKMSCKASGYTFPTYSIHWLKQGPGQGLEWIGYINPSTIYTNYNQKFKYKATLTADKSSSTAYIQLSSLTSDDSAVYYCAREGYGRGNAMDYWGQGTSVTVSS VL: DIVMTQSPSSQTVTAGEKVTLSCRSSQSLLNGGNQKNYLTWYQQKPGQPPKLLIYWASTRESGVPDRFTGSGSGTYFTFTISSVQAEDLAVYYCQNAYFYPFTFGAGTKLELK
